From patent US20170121398A1 (PROTHENA BIOSCIENCES, published 2017)

Target: pH4.0-treated TTR (human, UniProt P02766 21-147)
Experiment: ELISA, pH4-treated TTR-His captured on an anti-His coat, anti-mouse HRP detection, OD450

EC50 (read off the curve): ~0.2 µg/mL
B1: mouse antibody 6C1 (antibody, IgG1, V domains shown)
VH: EVQLVESGGGLVQPGGSLKLSCAASGFTFSNYYMSWVRQTPEKRLEWVAYISIDGNNIYHPDSVKGRFTISRDNAKNTLYLQMSSLKSEDTAMYYCARDSDYGYFDVWGTGTTVTVSS
VL: DVLMTQTPLSLPVSLGDQASISCRSSQSIVHSNGNTYLEWYLQKRGQSPKLLIYKVSKRFSGVPDRFSGSGSGTDFILKISRVEAEDLGVYYCFQGSHVPLTFGGGTKLELK
notes: also called m6C1; mis-TTR mAb 6C1
